Among the data in article PMC6031081, “A Novel UDP-Glycosyltransferase of Rhodiola crenulata Converts Tyrosol to Specifically Produce Icariside D2” (BioMed Research International, 2018) are Km, Vmax and kcat values, retold here.

Substrate in the data set: OCCc1ccc(O)cc1
The data set is described as follows: purified protein. The class given is biochemical, Rhodiola crenulata. The conditions noted are these: UDP-glucose co-substrate (2 mM), tyrosol varied 0.5-5 mM, 50 mM Tris-HCl, pH 8.6, 30°C, 30 min.

B1: RcUGT1 (Rhodiola crenulata) (protein)
chain: MDSDSRPLRVFFFPFMAHGHLIPMVDIARLFSSQGVHSTIITTPLNANYISKTTSLSIKTLPFQASKVGLPDGCENVDMLPSPDLIFKFFQAANLLQKPFENLLELEKPDCLISDIFFPWSVDSAGKFNIPRLVFHGTSFFAMCAMESLKTHKPYKSVSTDSEPFVIPNLPDEIKMTKSQFTVDAWEDTEKGVGKLLADARASGLRSFGVVVNSFYELEPAYADYYKNVLNMKAWCVGPVSVCYRNDEEKIARGKKSAIDDHECLKWLEGKQPDSVVYVCFGSGASFPDEQLRDIALGLEDSGVNFIWVIRRSSESGSEDYLPEGFEDRVEGSGLVIRGWAPQVLILDHPSVGGFVTHCGWNSALEGISAGLPMVTWPLFAEQFFNQKLITDVLKIGVEVGVQKWSRNGEDRVTKEKVEKAVRAVMVGEVAEERRGRARQLGKLAKNAAAKDGSSFIDLHNLLDELKLRRVPLS
notes: 6xHis tag (pQE30), E. coli M15, Ni-NTA purified; primers encode ends MDSDSRP...RRVPLS
Consider B1, for which the Km was determined as 972.75 ± 104.31 µM, the Vmax worked out at 0.0172 µmol/min/mg and the kcat is 0.0155 ± 0.00044 s⁻¹.
